T1: CD73 on cell membrane surface (MDA-MB-231, U87-MG) (human, UniProt P21589 27-549)
T1 construct: whole, on cells; also called NT5E
T1 sequence (looked up): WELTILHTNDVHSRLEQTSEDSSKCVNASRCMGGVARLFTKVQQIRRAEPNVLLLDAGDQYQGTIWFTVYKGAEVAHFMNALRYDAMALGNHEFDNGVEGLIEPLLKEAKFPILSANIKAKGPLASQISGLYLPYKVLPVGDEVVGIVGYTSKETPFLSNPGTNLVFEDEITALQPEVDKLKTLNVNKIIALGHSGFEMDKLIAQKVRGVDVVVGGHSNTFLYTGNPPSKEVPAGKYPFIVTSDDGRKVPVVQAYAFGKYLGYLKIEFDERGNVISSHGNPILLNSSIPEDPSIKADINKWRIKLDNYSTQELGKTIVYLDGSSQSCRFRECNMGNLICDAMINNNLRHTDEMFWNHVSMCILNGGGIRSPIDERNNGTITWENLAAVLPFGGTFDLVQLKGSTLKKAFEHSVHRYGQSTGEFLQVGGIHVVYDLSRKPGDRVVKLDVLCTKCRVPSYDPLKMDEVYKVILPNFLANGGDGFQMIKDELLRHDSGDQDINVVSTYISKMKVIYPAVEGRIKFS

T2: human NT5E-Biotin (human, UniProt P21589 27-552, limits assumed, biotin label, site not stated)
T2 construct: Captured on streptavidin-coated plates; also called human NTSE-Biotin
T2 sequence (looked up): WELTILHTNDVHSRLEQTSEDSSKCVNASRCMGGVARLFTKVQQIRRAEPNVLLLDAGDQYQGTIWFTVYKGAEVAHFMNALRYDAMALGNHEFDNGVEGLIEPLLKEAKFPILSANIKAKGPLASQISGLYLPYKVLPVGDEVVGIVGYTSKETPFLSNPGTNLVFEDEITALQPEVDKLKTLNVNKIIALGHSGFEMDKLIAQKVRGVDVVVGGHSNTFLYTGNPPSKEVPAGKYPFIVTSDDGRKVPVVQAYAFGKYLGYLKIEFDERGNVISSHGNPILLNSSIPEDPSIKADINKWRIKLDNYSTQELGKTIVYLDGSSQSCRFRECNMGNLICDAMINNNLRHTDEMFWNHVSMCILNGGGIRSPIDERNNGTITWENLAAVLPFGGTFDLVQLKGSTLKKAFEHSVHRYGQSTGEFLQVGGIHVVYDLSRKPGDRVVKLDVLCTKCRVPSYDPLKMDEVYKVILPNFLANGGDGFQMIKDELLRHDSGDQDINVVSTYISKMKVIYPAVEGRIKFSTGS


How the values were obtained:
[1] = biological target: T1, CD73 on cell membrane surface …; assay: flow cytometry, MDA-MB-231 cells; antibody 100.00 nM
Protocol: (§1) MDA-MB-231 cells in logarithmic phase were digested with conventional trypsin and transferred to a 1.5 mL centrifuge tube at 3×10⁵ cells/tube. 500 μL of PBSA was added, and the mixture was centrifuged at 5600 rpm for 5 min to remove the supernatant. […] The system was mixed gently and uniformly, and then was incubated on ice for 1 h. Then 500 μL of PBSA was added, and the mixture was centrifuged at 5600 rpm for 5 min to remove the supernatant. […] 500 μL of PBSA was added, and the mixture was centrifuged at 5600 rpm for 5 min to remove the supernatant. At last, 200 μL of PBSA was added to resuspend cell precipitates, and the mixture was transferred to a flow tube for FACSCalibur detection.

[2] = biological target: T1, CD73 on cell membrane surface …; assay: flow cytometry, MDA-MB-231 cells; antibody 0.41 nM
Protocol: as §1

[3] = biological target: T1, CD73 on cell membrane surface …; assay: flow cytometry, MDA-MB-231 cells; antibody 0.05 nM
Protocol: as §1

[4] = biological target: T1, CD73 on cell membrane surface …; assay: flow cytometry, MDA-MB-231 cells
Protocol: as §1

[5] = biological target: T3, PD-1 on 293T-PD1 cell surface (human, UniProt Q15116 25-288); assay: flow cytometry, 293T-PD1 cells; antibody 33.33 nM
T3 construct: whole, on cells
Protocol: as §1, with “500” for “MDA-MB-231 cells in logarithmic phase were digested with conventional trypsin and transferred to a 1.5 mL centrifuge tube at 3×10⁵ cells/tube. 500”

[6] = biological target: T3, PD-1 on 293T-PD1 cell surface; assay: flow cytometry, 293T-PD1 cells; antibody 11.11 nM
Protocol: as §1, with “500” for “MDA-MB-231 cells in logarithmic phase were digested with conventional trypsin and transferred to a 1.5 mL centrifuge tube at 3×10⁵ cells/tube. 500”

[7] = biological target: T1, CD73 on cell membrane surface …; assay: flow cytometry, MDA-MB-231 cells; antibody 3.70 nM
Protocol: as §1

[8] = biological target: T1, CD73 on cell membrane surface …; assay: flow cytometry, MDA-MB-231 cells; antibody 1.23 nM
Protocol: as §1

[9] = biological target: T2, human NT5E-Biotin; assay: ELISA, NT5E-biotin on streptavidin
Protocol: A microplate was coated with streptavidin at 2 μg/mL and then incubated at 4° C. overnight. After incubation, the microplate coated with streptavidin was washed once with PBST, and blocked with a PBS solution containing 1% BSA as a microplate blocking solution at 37° C. for 2 h. After blocking, the microplate was washed 3 times with PBST. Then, 0.5 μg/mL antigen human NTSE-Biotin was added and incubated at 37° C. for 30 min. Then, the plate was washed 3 times with PBST. The antibodies serially diluted with PBST solution (the dilution gradients for the antibody are shown in Table 3) were added to wells of the microplate. The microplate containing the test antibodies was incubated at 37° C. for 30 min, and then washed 3 times with PBST. […] After incubation, the plate was washed 4 times with PBST, TMB (Neogen, 308177) was added in the dark for chromogenesis for 5 min, and then a stop solution was added to terminate chromogenic reaction. The microplate was put into a microplate reader immediately, and the OD value of each well in the microplate was read at 450 nm. The data were analyzed and processed by SoftMax Pro 6.2.1.

T3 sequence (Q15116 25-288): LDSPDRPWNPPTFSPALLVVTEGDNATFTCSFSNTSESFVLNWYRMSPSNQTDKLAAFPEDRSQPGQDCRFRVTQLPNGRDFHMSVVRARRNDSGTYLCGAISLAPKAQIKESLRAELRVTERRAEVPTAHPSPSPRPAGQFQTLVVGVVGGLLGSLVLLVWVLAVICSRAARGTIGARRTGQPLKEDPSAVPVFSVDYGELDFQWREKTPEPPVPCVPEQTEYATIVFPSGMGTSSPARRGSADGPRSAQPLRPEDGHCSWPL

| FACS signal [1] | FACS signal [2] | FACS signal [3] | EC50 [4] [nM] | FACS signal [5] | FACS signal [6] | FACS signal [7] | FACS signal [8] | EC50 [9] [nM] | Binder |
| --- | --- | --- | --- | --- | --- | --- | --- | --- | --- |
| 706 | 76.8 | 23.4 | 1.38 | 479 | 578 | 572 | 272 | 0.063 | P1D7V01 (bispecific antibody, human IgG1, kappa, Morrison form IgG-scFv) heavy: not shown light: DIQMTQSPSSMSASVGDRVTFTCRASQDINTYLSWFQQKPGKSPKTLIYRANRLVSGVPSRFSGSGSGQDYTLTISSLQPEDMATYYCLQYDEFPLTFGAGTKLELKRTVAAPSVFIFPPSDEQLKSGTASVVCLLNNFYPREAKVQWKVDNALQSGNSQESVTEQDSKDSTYSLSSTLTLSKADYEKHKVYACEVTHQGLSSPVTKSFNRGEC |
| 678 | 106 | 17 | 2.01 | 808 | 459 | 458 | 233 | 0.068 | P1D7V03 (bispecific antibody, human IgG1, kappa, Morrison form IgG-scFv) heavy: not shown light: DIQMTQSPSSMSASVGDRVTFTCRASQDINTYLSWFQQKPGKSPKTLIYRANRLVSGVPSRFSGSGSGQDYTLTISSLQPEDMATYYCLQYDEFPLTFGAGTKLELKRTVAAPSVFIFPPSDEQLKSGTASVVCLLNNFYPREAKVQWKVDNALQSGNSQESVTEQDSKDSTYSLSSTLTLSKADYEKHKVYACEVTHQGLSSPVTKSFNRGEC |
